Here are results for one molecule from patent US11813311B2, “Treatment and prevention of metabolic diseases” (Singapore Health Services PTE LTD., priority 2019, dated 2023).

Series [1] has as its system HSCs. The experiment in a line: HSC-to-myofibroblast transformation (ACTA2/Collagen I, Operetta). The series is classed as cell-based, human. To be noted: IL-11 5 ng/ml, 24 h. The method, then: Cells (atrial fibroblasts, HSCs and hepatocytes) were grown and maintained at 37° C. and 5% CO2. The growth medium was renewed every 2-3 days and cells were passaged at 80-90% confluence using standard trypsinization techniques. All the experiments were carried out at low cell passage (P1-P2). Cells were serum-starved for 16 h prior to stimulations. Stimulated cells were compared to unstimulated cells that have been grown for the same duration under the same conditions (serum-free media), but without the stimuli.
HSCs (5300, ScienCell) were cultured in stellate cells complete media (5301, ScienCell) on poly-L-lysine-coated plates (2 μg/cm2, 0403, ScienCell).
The Operetta assay was performed mostly as described previously 11 with minor modifications described here: HSCs or hepatocytes were seeded in 96-well black CellCarrier plates (PerkinElmer) at a density of 5×10^3 cells per well. Following experimental conditions, cells were fixed in 4% paraformaldehyde (PFA, 28908, Thermo Fisher), permeabilized with 0.1% Triton X-100 (Sigma) and non-specific sites were blocked with 0.5% BSA and 0.1% Tween-20 in PBS. Cells were incubated overnight (4° C.) with primary antibodies (1:500), followed by incubation with the appropriate AlexaFluor 488 secondary antibodies (1:1000). Rhodamine Phalloidin staining (1:1000, R415, Thermo Fisher) was performed by overnight incubation (4° C.). […]

Series [2] has as its system HSCs. The experiment in a line: Matrigel invasion assay of HSCs. The series is classed as cell-based, human. To be noted: 48 h. Here is the method:
The invasive behavior of human HSCs was assayed using 24-well Boyden chamber invasion assays (Cell Biolabs Inc.). Equal numbers of HSCs in serum-free HSC media were seeded in triplicates onto the ECM-coated matrigel and were allowed to invade towards HSC media containing 0.2% FBS. After 48 h of incubation with stimuli, media was aspirated and non-invasive cells were removed using cotton swabs. The cells that invaded towards the bottom chamber were stained with cell staining solution (Cell Biolabs Inc.) and invasive cells from 5 non-overlapping fields/membrane were imaged and counted under 40× magnification. For antibody inhibition experiments, HSCs were pretreated with X203, X209, or IgG control antibodies for 15 m prior to addition of stimuli.

The subject of another series is ERK. The experiment in a line: ERK activation in HSCs (Western blot). To be noted: stimulation with IL-11. The series is classed as cell-based, human. Here is the method: Western blots were carried out on total protein extracts from HSCs and liver tissues. Both cells and frozen tissues were homogenized in radioimmunoprecipitation assay (RIPA) buffer containing protease and phosphatase inhibitors (Thermo Scientifics), followed by centrifugation to clear the lysate. Protein concentrations were determined by Bradford assay (Bio-Rad). Equal amount of protein lysates were separated by SDS-PAGE, transferred to PVDF membrane, and subjected to immunoblot analysis for the indicated primary antibodies. Proteins were visualized using the ECL detection system (Pierce) with the appropriate secondary antibodies.

Series [3] relates to HSCs. The experiment in a line: CCL2 secretion by HSCs (ELISA). Conditions: IL-11 5 ng/ml. It counts as cell-based, human. The method, then: FIG. 31A to 31H. Neutralizing anti-IL-11 and anti-IL11 RA antibodies protect HFMCD-fed mice from hepatic fibrosis and inflammation. (A) CCL2 in the supernatants of HSCs (n=4/group) without stimulus (−), with IL-11, or with TGFβ1 in the presence of IgG, X203, or X209 by ELISA; IL-11 (5 ng m1^−1), TGFβ1 (5 ng m1^−1), IgG, X203, and X209 (2 μg m1^−1). (B) Representative gross liver images, (C) Western blots of hepatic ERK activation status, (D) representative (scale bars, 100 μm) and (E) quantification of Masson's Trichrome stained images of livers after 5 weeks of early X203 and X209 treatments. (F) Liver hydroxyproline content (the values of NC and HFMCD 1 week diets are the same as those used in FIG. 25C, the values of IgG 3 and 6 weeks are the same as those used in FIG. 22F, n≥5/group), (G) relative RNA expression levels of fibrosis markers in the livers after 5 weeks treatment of X203 and X209 by qPCR, which confirms data from RNA-seq (the values of NC 6 week for Col1a1, Col1a2, Col3a1, and Acta2 are the same as those shown in FIG. 28D, n≥5/group), and (H) serum ALT levels (the values of NC and HFMCD 1 week are the same as those used in FIG. 25D, the values of IgG 3 and 6 weeks (2 weeks and 5 weeks treatment, respectively) are the same as those used in FIG. 22G, n≥5/group). […]

Series [4] deals with primary human hepatocytes. The experiment in a line: Stimulation of primary human hepatocytes with IL11, hyperIL11, hyperIL6. The series is classed as cell-based. Here is the method: Human hepatocytes (5200, ScienCell) were grown and maintained in hepatocyte media (5201, ScienCell) supplemented with 2% fetal bovine serum (FBS) and 1% Penicillin-streptomycin.
Primary human hepatocytes (5200, ScienCell) were maintained in hepatocyte medium ([…], ScienCell) supplemented with 2% fetal bovine serum, 1% Penicillin-streptomycin at 37° C. and 5% CO2. Hepatocytes (P2-P3) were serum-starved overnight unless otherwise specified in the methods prior to 24 hours stimulation with different doses of various recombinant proteins as described.
For surface IL11RA, IL6R, and gp130 analysis, primary human hepatocytes and THP-1 cells were stained with IL11RA, IL6R, or gp130 antibody and the corresponding Alexa Fluor 488 secondary antibody. Cell death analysis was performed by staining primary human hepatocytes with Dead Cell Apoptosis Kit with Annexin V FITC and PI (V13242, Thermo Fisher). PI+ve cells were then quantified with the flow cytometer (Fortessa, BD Biosciences) and analyzed with FlowJo version X software (TreeStar).
Alanine Aminotransferase (ALT) activity in the cell culture supernatant and mouse serum was measured using ALT Activity Assay Kit (ab105134, Abcam). Liver Glutathione (GSH) levels were measured using Glutathione Colorimetric Detection Kit (EIAGSHC, Thermo Fisher). Total hydroxyproline content in mouse livers was measured using Quickzyme Total Collagen assay kit (QZBtotco15, Quickzyme Biosciences). The levels of serum and liver triglycerides were measured using Triglyceride Assay Kit (ab65336, Abcam). Mouse serum levels of Aspartate Aminotransferase (AST) and cholesterol were measured using AST Assay Kit (ab105135, Abcam) and Cholesterol Assay Kit (ab65390; Abcam), respectively. All colorimetric assays were performed according to the manufacturer's protocol.
Western blots were carried out on total protein extracts from hepatocytes and liver tissues. Hepatocyte and liver tissue lysates were homogenized in RIPA Lysis and Extraction Buffer (89901, Thermo Scientific) containing protease and phosphatase inhibitors (Roche). Protein lysates were separated by SDS-PAGE and transferred to PVDF membranes. Protein bands were visualized using the ECL detection system (Pierce) with the appropriate secondary antibodies: anti-rabbit HRP or anti-mouse HRP.

The test system of another series is PSCs. The experiment in a line: Pancreatic stellate cell (PSC) activation in vitro. The series is classed as cell-based. Conditions: treatment with IL-11, 24 hours. The method, then:
FIGS. 48A and 48B. Box plots and images showing activation of pancreatic stellate cells (PSCs) to a αSMA-positive, collagen-expressing fibrogenic phenotype. (A) Quantification of high-content imaging assays for the percentage of ACTA2-positive cells and collagen I intensity/area following in vitro stimulation of PSCs for 24 hours with the indicated factors, in the presence or absence of neutralising anti-IL-11 RA antibody or IgG isotype control antibody. (B) Representative images for high-content imaging analysis of collagen I intensity/area following in vitro stimulation of PSCs for 24 hours with the indicated factors, in the presence of neutralising anti-IL-11 RA antibody or IgG isotype control antibody.

A further series deals with IL-11Rα. To be noted: IL-11Rα alone, low affinity; cited from earlier work.

As usually defined, the Kd is the constant that tells how readily two partners part at equilibrium.

B1: IL-11: Interleukin 11; recombinant human IL11 (UniProtKB:P20809) used to stimulate cells (protein, listed as Homo sapiens)
chain: MNCVCRLVLVVLSLWPDTAVAPGPPPGPPRVSPDPRAELDSTVLLTRSLLADTRQLAAQLRDKFPADGDHNLDSLPTLAMSAGALGALQLPGVLTRLRADLLSYLRHVQWLRRAGGSSLKTLEPELGTLQARLDRLLRRLQLLMSRLALPQPPPDPPAPPLAPPSSAWGGIRAAHAILGGLHLTLDWAVRGLLLLKTRL
modifications: IL-11 (UniProt P20809)
notes: Interleukin 11; recombinant human IL11 (UniProtKB:P20809) used to stimulate cells
Regarding B1, the “activation of HSCs into ACTA2+ve myofibroblasts” value in the series with HSCs [1] is listed as “activated HSCs to a similar extent as TGFβ1 or PDGF”. Further, the “matrix invasion by HSCs” value in the series with HSCs [2] is on record as “promoted dose-dependent matrix invasion”. In addition, the “ERK activation in HSCs” value in the series with ERK is “directly activates ERK”. Moreover, the “HSC production of CCL2” value in the series with HSCs [3] is recorded as “stimulated HSC production of CCL2”. In addition, the hepatocyte cell death result in series [4] (IL11 0.625 ng/ml to 20 ng/ml) is “caused hepatocyte cell death”. In series [4] (IL-11, dose range), the “expression of stress fibres in hepatocytes” value is given as “progressive increase in expression of stress fibres”. In addition, the “release of ALT from hepatocytes” value in series [4] (physiological levels of IL-11) was “dose-dependent release of ALT”. In addition, in the series on PSCs, the PSC activation result was “triggered”. For the same molecule, the Kd at IL-11Rα was around 10 nM.
